Reference: patent publication US20250340659A1 (PETMEDIX, published 2025)

T1: canine OX40L, full length membrane form, expressed on HEK293 cells (canine)
T1 construct: also called OX40L expressing HEK; HEK OX40L cells
T1 chain: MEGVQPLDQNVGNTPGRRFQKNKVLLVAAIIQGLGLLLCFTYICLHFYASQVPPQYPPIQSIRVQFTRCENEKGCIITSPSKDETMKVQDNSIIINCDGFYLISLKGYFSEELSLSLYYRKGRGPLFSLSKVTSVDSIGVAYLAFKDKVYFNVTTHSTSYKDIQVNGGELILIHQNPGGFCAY

T2: recombinant canine OX40L ECD-TNCc-HIS protein (canine)
T2 construct: also called Trimeric OX40L probe (HIS tag); trimeric canine OX40L
T2 chain: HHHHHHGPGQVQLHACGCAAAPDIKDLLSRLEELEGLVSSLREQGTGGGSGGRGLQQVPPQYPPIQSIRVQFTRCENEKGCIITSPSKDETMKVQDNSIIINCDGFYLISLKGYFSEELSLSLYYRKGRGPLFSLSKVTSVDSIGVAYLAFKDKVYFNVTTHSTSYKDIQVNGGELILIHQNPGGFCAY


Tests used:
[1] = molecular target: T1, canine OX40L, full length membrane …; assay: flow cytometry
Description: (§1) CHO supernatants diluted in FACS buffer (PBS containing 3% FBS) at 1, 5 or 10 μg/ml were used to screen for their binding capacity to canine OX40L using a cell-based assay. In brief, HEK293 or MEF cells (or any other commonly used cell lines) expressing canine OX40L at the cell surface are incubated with 100 μll of FACS buffer containing the candidate antibody for 30′ on ice. Cells are washed with 150 μl FACS buffer followed by centrifugation at 300 g for 3 min. The cell pellet is resuspended in FACS buffer containing a 1:1000 dilution of a fluorescently labelled secondary antibody recognising the canine Fc region of the test antibody for 30 min in the dark, followed by washing with 150 μl FACS buffer. Cells are resuspended in FACS buffer and flow cytometry performed using either a […] cytometer, followed by data analysis using FlowJo (FIG. 6 and Table 4).

[2] = molecular target: T1, canine OX40L, full length membrane …; assay: flow cytometry, OX40L HEK minus WT HEK
Description: as §1

[3] = molecular target: T2, recombinant canine OX40L ECD-TNCc-HIS …; assay: SPR Koff (kd1)
Description: (§2) Affinity (Kd) of OX40L antibodies is measured by SPR, using a recombinant canine OX40L ECD-TNCc-HIS protein (Seq ID 811) as the capturing agent (FIG. 5B).
(§3) Functional affinity is determined using a Biakore 8K (Cytiva). in brief, purified OX40L ECD-TNCc-HIS protein is covalently bound at low density to the surface of a CM5 sensor chip (Cytiva) by amine coupling, using the manufacturer's recommended protocol. Candidate antibodies are subsequently passed across the chip surface at a range of concentrations and affinity determined using the dedicated software (Biacore Insight Evaluation Software). Curves were fitted using a bivalent analyte binding model.

[4] = molecular target: T2, recombinant canine OX40L ECD-TNCc-HIS …; assay: SPR Koff (kd2)
Description: as §2, §3

[5] = molecular target: T1, canine OX40L, full length membrane …; assay: cell-based or functional assay
[6] = molecular target: T2, recombinant canine OX40L ECD-TNCc-HIS …; assay: SPR KD1, bivalent analyte model
Description: as §2, §3

Binder	GEO mean OX40L expressing HEK [1]	GEO mean difference [2]	koff [3] [s⁻¹]	koff [4] [s⁻¹]	% Signal Inhibition Average [5] [%]	% Signal Inhibition Rep1 [5] [%]	% Signal Inhibition Rep2 [5] [%]	% Signal Inhibition Rep3 [5] [%]	Kd [6] [nM]
PMX049 (antibody, V domains shown, also called PMX49) VH: EVQLVESGGDLVKPGGSLRLSCVASGFTFNNYEMYWVRQAPGKGLEWVARIYESGSTTFSAEAVTGRFTISRDNAKNMVYLQMNSLRAEDTAVYYCASASSSSWRFDYWGQGTLVTVSS VL: SYVLTQLPSVSVTLGQTARITCGGDSIGRKNVCWFQQRLGQAPELIIYDDRSRPSGIPERFSGANSGNTATLTISGALAEDEADYYCQVWDSSTGVFGGGTHLTVL	3.5e+06	3.48e+06	0.00211	22	84.7	84.6	79.3	90.1	15.6
PMX037 (antibody, V domains shown, also called PMX37) VH: EVQLLESGGDLVKPGGSLRLSCVASGFTFSNYEMYWVRQAPGKGLEWVARFYESGSTTYSAEAVPGRFTISRDNAKNMAYLQMNSLRAEDTAVYYCASASSSSWRFDYWGQGTLVTVSS VL: SYVLTQLPSVSVTLGQTARITCGGDSIGSKNVYWFQQKLGQAPVLIIYDDRSRPSGIPERFSGANSGNTATLTISGALAEDEADYYCQVWDSSTGVFGGGTHLTVL	1.42e+06	1.39e+06	0.0183	0.000862	78.4	85.7	79.8	69.8	308
PMX048 (antibody, V domains shown, also called PMX48) VH: EVQLVESGGDLVKPGGSLRLSCVASGFTFNNYEMYWVRQAPGKGLEWVARIYESGTTTYSAEADTGRFTISRDNAKNMVFLQMNSLRAEDTAVYYCASASSSTWRFDYWGQGTLVTVSS VL: SYVLTQLPSVSVTLGQTARITCGGDSIGRKNVYWFQQKLGQAPVLIIYDDRSRPSGIPERFSGANSGNTATLTISGALAEDEADYYCQVWDSSTGVFGGGTHLTVL	3.92e+06	3.9e+06	0.00485	21	69.9	57.5	69.3	82.9	12.2
PMX041 (antibody, also called PMX41) heavy: EVHLVESGGDLVKPEGSLRLSCVVSGFTFTTNDMSWVRQAPGKGLQWVAYITSDGRITTYTDAVKGRFTISRDNAKNTLYLQMNSLRTEDTAVYYCAKHSSNWSRGRFGLDYWGHGTSLFVSSASTTAPSVFPLAPSCGSTSGSTVALACLVSGYFPEPVTVSWNSGSLTSGVHTFPSVLQSSGLYSLSSMVTVPSSRWPSETFTCNVAHPASKTKVDKPVPKRENGRVPRPPDCPKCPAPESLGGPSVFIFPPKPKDTLLIARTPEVTCVVVDLGREDPEVQISWFVDGKQMQTAKTQPREEQFNGTYRVVSVLPIGHQDWLKGKQFTCKVNHIGLPSPIERTISKARGQAHQPSVYVLPPSREELSKNTVSLTCLIKDFFPPDIDVEWQSNGQQEPESKYRTTPPQLDEDGSYFLYSKLSVDKSRWQRGDTFICAVMHEALHNHYTQKSLSHSPGK VL: SYVLTQLPSKNVTLKQPAHITCGGDNIGSKSVHWYQQKLGQAPVLIIYYDSSRPTGIPERFSGANSGNTATLTISGALAEDEADYYCQVWDNSASVFGGGTHLTVL	1.56e+06	1.53e+06	0.0134	0.000409	80.1	86.4	78.2	75.6	1590
PMX039 (antibody, also called PMX39) heavy: EVQLVESGGDLVKPEGSLRLSCVVSGFTFITNDMSWVRQAPGKGLQWVAYITNDGRYTSYTDAVKGRFTISRDNAKNTLYLQMNSLRTEDTAVYYCAKHSSNYYRGRFGMDYWGHGTSLFVSSASTTAPSVFPLAPSCGSTSGSTVALACLVSGYFPEPVTVSWNSGSLTSGVHTFPSVLQSSGLYSLSSMVTVPSSRWPSETFTCNVAHPASKTKVDKPVPKRENGRVPRPPDCPKCPAPESLGGPSVFIFPPKPKDTLLIARTPEVTCVVVDLGREDPEVQISWFVDGKQMQTAKTQPREEQFNGTYRVVSVLPIGHQDWLKGKQFTCKVNHIGLPSPIERTISKARGQAHQPSVYVLPPSREELSKNTVSLTCLIKDFFPPDIDVEWQSNGQQEPESKYRTTPPQLDEDGSYFLYSKLSVDKSRWQRGDTFICAVMHEALHNHYTQKSLSHSPGK VL: SYVLTQLPSKNVTLKQPAHITCGGDNIGSKSVHWYQQKLGQAPVLIIYYDSTRPTGIPERFSGANSGNTATLTISGALAEDEADYYCQVWDSSASVFGGGTHLTVL	1.52e+06	1.49e+06	0.0128	0.00139	80.6	81.7	86.6	73.6	46.4
PMX050 (antibody, V domains shown, also called PMX50) VH: EVQLVESGGDLVKPEGSLRLSCVVSGFTFTTYDMSWVRQAPGKGLQWVAYITNDGRITTYTDAVKGRFTISRDNAKNTLYLQMNSLRTVDTGVYYCARHSSSWSRGRFGLDYWGHGTSVFVSS VL: SYVLTQLPSKNVTLKQPAHITCGGDNIGRKGVHWYQQKLGQAPVLIIYYDSSRPTGIPERFSGANSGNTATLTISGALAEDEADYYCQVWDNSASVFGGGTHLTVL	3.08e+06	3.06e+06	0.000525	0.161	76.6	68.7	83.3	77.6	1.31
PMX051 (antibody, V domains shown, also called PMX51) VH: EVQLVESGGDLVKPGGSLRLSCVASGFSFNTYHMNWVRQAPGKGLHWVAFINSDGGGTSYADTVKGRFTISRDYAKNTLYLQMNSLRAEDTAVYYCVSGSIWTHFDYWGQGTLVTVSS VL: SYVLTQLPSVSMTLRQTAHITCGGDIIGSKSVYWYQQKLGQAPVLIIYRDTNRPTGIPERFSGASSGNTATLTISGALAEDEADYYCQVWDSSTQAVFGGGTHLTVL	3.94e+06	3.92e+06	0.00119	4.81	84.1	82.2	75.3	94.7	7.92
PMX105 (antibody, V domains shown) VH: EVQLVESGGDLVKPGGSLRLSCVASGFTFNTYHMNWVRQAPGKGLHWVAFINSGGSGTSYEDTVQGRFTISRDYAKNTLYLQMNSLRAEDTAVYYCACGSIWTHFDYWGQGTLVTVSS VL: SYVLTQLPSVSVTLRQTAHITCGGDIIGSKSVYWYQQKLGQAPVMIIYRDNNRPTGIPERFSGASSGNTATLTISGSLAEDEADYYCQVWDSRTQALFGGGTHLTVL	584000	580000	0.00174	1.23	84.2	85.4	94.8	72.5	17.6
PMX052 (antibody, V domains shown, also called PMX52) VH: EVQLVESGGDLVKPAGSLRLSCVASGFTFSSYSMSWVRQAPEKGLQLVAGISGGGSRTYYSDAVKGRFTISRDNAKNTVYLQMNSLRAEDTAIYYCAKDGGSWAGYNFDYWGQGTLVTVSS VL: DIVMTQTPPSLSVSPRETASISCKASQSLLHSDGSTYLDWYLQKPGQSPQLLIYLGSNRFTGVSDRFSGSGSGTEFTLRISRVEANDTGVYYCGQGTQLPYTFGQGTELEIK	765000	734000	0.00276	0.0725	22.2	15.7	29.2	21.7	12
PMX047 (antibody, V domains shown, also called PMX47) VH: EVQLVESGGDLVKPGGSLRLSCVASGFIFSSYSMSWVRQAPEKGLQLVAGINSAGSSTYYTDAVKGRFTISRDNAKNTVYLQMNSLRAEDTAIYYCAKRWVFDFWGQGTLVTVSS VL: HIVMTQTPLSLSVSPGEPASISCKASQSLLLSYGNTYLYWFRQKPGQSPQRLIYKVSNRDPGVPDRFSGSGSGTDFTLRISRVEADDAGVYYCGQGIQDPFTFGQGTKLEIK	1.95e+06	1.92e+06	0.000451	1.5e-05	61.6	49.3	73.1	62.3	12.5
